Target: Death Receptor 5 (human) (UniProt O14763)
Experiment: cell-based or functional assay

Chain of UniProt O14763 (O14763 other isoform, or with tags, fused parts or gaps limits assumed): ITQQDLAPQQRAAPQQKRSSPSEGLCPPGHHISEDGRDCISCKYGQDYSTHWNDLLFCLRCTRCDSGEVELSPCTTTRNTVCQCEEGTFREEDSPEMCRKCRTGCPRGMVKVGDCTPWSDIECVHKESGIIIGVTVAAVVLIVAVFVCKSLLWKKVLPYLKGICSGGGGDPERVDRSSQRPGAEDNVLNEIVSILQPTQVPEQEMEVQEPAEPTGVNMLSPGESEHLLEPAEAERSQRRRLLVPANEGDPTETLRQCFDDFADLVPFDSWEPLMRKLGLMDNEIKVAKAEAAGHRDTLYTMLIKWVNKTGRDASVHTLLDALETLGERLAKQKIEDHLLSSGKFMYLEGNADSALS

Substance	rate of DR5 endocytosis [fold]	receptor internalizing over 2 hr (fraction of the receptor)
Flag-tagged human recombinant soluble Apo2L/TRAIL cross-linked by anti-FLAG M2 antibody (from UniProt P50591 114-281) (ligand)	2	0.33
human recombinant soluble Apo2L/TRAIL, non-tagged (trimeric) (from UniProt P50591 114-281) (ligand)	2	0.33

Reference: US20110244473A1
